Experimental data taken from patent publication US8916684B2, “Bioengineered protein pores” (Syracuse University, priority 2010, dated 2014).

Experiment: Single-channel electrical recordings of protein pores in planar lipid bilayers
Type: biochemical
Settings: +40 mV
[1] = 1 M KCl, 10 mM potassium phosphate, pH 7.4

B1: WT-FhuA: wild-type E. coli ferric hydroxamate uptake component A, 714-residue β-barrel outer membrane protein (protein, UniProt P06971 34-747, looked up)
Ferrichrome outer membrane …: AVEPKEDTITVTAAPAPQESAWGPAATIAARQSATGTKTDTPIQKVPQSISVVTAEEMALHQPKSVKEALSYTPGVSVGTRGASNTYDHLIIRGFAAEGQSQNNYLNGLKLQGNFYNDAVIDPYMLERAEIMRGPVSVLYGKSSPGGLLNMVSKRPTTEPLKEVQFKAGTDSLFQTGFDFSDSLDDDGVYSYRLTGLARSANAQQKGSEEQRYAIAPAFTWRPDDKTNFTFLSYFQNEPETGYYGWLPKEGTVEPLPNGKRLPTDFNEGAKNNTYSRNEKMVGYSFDHEFNDTFTVRQNLRFAENKTSQNSVYGYGVCSDPANAYSKQCAALAPADKGHYLARKYVVDDEKLQNFSVDTQLQSKFATGDIDHTLLTGVDFMRMRNDINAWFGYDDSVPLLNLYNPVNTDFDFNAKDPANSGPYRILNKQKQTGVYVQDQAQWDKVLVTLGGRYDWADQESLNRVAGTTDKRDDKQFTWRGGVNYLFDNGVTPYFSYSESFEPSSQVGKDGNIFAPSKGKQYEVGVKYVPEDRPIVVTGAVYNLTKTNNLMADPEGSFFSVEGGEIRARGVEIEAKAALSASVNVVGSYTYTDAEYTTDTTYKGNTPAQVPKHMASLWADYTFFDGPLSGLTLGTGGRYTGSSYGDPANSFKVGSYTVVDALVRYDLARVGMAGSNVALHVNNLFDREYVASCFNTYGCFWGAERQVVATATFRF
all-points histogram current amplitude peak: ~12.5 pA
Conductance [1]: 0.3 ± 0.2 nS
single-channel conductance [1]: 0.3±0.2 nS
